Experimental data from patent US7285654.

Test system: T1, GST-IκBβ (1-54)
T1 sequence: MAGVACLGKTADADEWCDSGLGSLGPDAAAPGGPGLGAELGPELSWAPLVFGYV

Substance: IKK signalsome (stimulus-inducible IκB kinase complex) immunopurified from TNFα-stimulated HeLa cells
- phosphorylation of substrate (kinase assay): the kinase phosphorylated GST-IκBβ (1-54), albeit with lower affinity
